Measured values taken from paper doi:10.1101/2020.01.30.926501 (bioRxiv, 2020).

Target: the molecule itself
Experiment: single-molecule GFP fluorescence intensity

Protein	stoichiometry N
Kif14(768)-eGFP (domain or fragment, human, UniProt Q15058 1-768, looked up) MSLHSTHNRNNSGDILDIPSSQNSSSLNALTHSSRLKLHLKSDMSECENDDPLLRSAGKVRDINRTYVISASRKTADMPLTPNPVGRLALQRRTTRNKESSLLVSELEDTTEKTAETRLTLQRRAKTDSAEKWKTAEIDSVKMTLNVGGETENNGVSKESRTNVRIVNNAKNSFVASSVPLDEDPQVIEMMADKKYKETFSAPSRANENVALKYSSNRPPIASLSQTEVVRSGHLTTKPTQSKLDIKVLGTGNLYHRSIGKEIAKTSNKFGSLEKRTPTKCTTEHKLTTKCSLPQLKSPAPSILKNRMSNLQVKQRPKSSFLANKQERSAENTILPEEETVVQNTSAGKDPLKVENSQVTVAVRVRPFTKREKIEKASQVVFMSGKEITVEHPDTKQVYNFIYDVSFWSFDECHPHYASQTTVYEKLAAPLLERAFEGFNTCLFAYGQTGSGKSYTMMGFSEEPGIIPRFCEDLFSQVARKQTQEVSYHIEMSFFEVYNEKIHDLLVCKDENGQRKQPLRVREHPVYGPYVEALSMNIVSSYADIQSWLELGNKQRATAATGMNDKSSRSHSVFTLVMTQTKTEFVEGEEHDHRITSRINLIDLAGSERCSTAHTNGDRLKEGVSINKSLLTLGKVISALSEQANQRSVFIPYRESVLTWLLKESLGGNSKTAMIATISPAASNIEETLSTLRYANQARLIVNIAKVNEDMNAKLIRELKAEIAKLKAAQRNSRNIDPERYRLCRQEITSLRMKLHQQERDMAEMQRV	2
Kif5b-GFP (domain or fragment, human, UniProt P33176 1-905, looked up) MADLAECNIKVMCRFRPLNESEVNRGDKYIAKFQGEDTVVIASKPYAFDRVFQSSTSQEQVYNDCAKKIVKDVLEGYNGTIFAYGQTSSGKTHTMEGKLHDPEGMGIIPRIVQDIFNYIYSMDENLEFHIKVSYFEIYLDKIRDLLDVSKTNLSVHEDKNRVPYVKGCTERFVCSPDEVMDTIDEGKSNRHVAVTNMNEHSSRSHSIFLINVKQENTQTEQKLSGKLYLVDLAGSEKVSKTGAEGAVLDEAKNINKSLSALGNVISALAEGSTYVPYRDSKMTRILQDSLGGNCRTTIVICCSPSSYNESETKSTLLFGQRAKTIKNTVCVNVELTAEQWKKKYEKEKEKNKILRNTIQWLENELNRWRNGETVPIDEQFDKEKANLEAFTVDKDITLTNDKPATAIGVIGNFTDAERRKCEEEIAKLYKQLDDKDEEINQQSQLVEKLKTQMLDQEELLASTRRDQDNMQAELNRLQAENDASKEEVKEVLQALEELAVNYDQKSQEVEDKTKEYELLSDELNQKSATLASIDAELQKLKEMTNHQKKRAAEMMASLLKDLAEIGIAVGNNDVKQPEGTGMIDEEFTVARLYISKMKSEVKTMVKRCKQLESTQTESNKKMEENEKELAACQLRISQHEAKIKSLTEYLQNVEQKKRQLEESVDALSEELVQLRAQEKVHEMEKEHLNKVQTANEVKQAVEQQIQSHRETHQKQISSLRDEVEAKAKLITDLQDQNQKMMLEQERLRVEHEKLKATDQEKSRKLHELTVMQDRREQARQDLKGLEETVAKELQTLHNLRKLFVQDLATRVKKSAEIDSDDTGGSAAQKQKISFLENNLEQLTKVHKQLVRDNADLRCELPKLEKRLRATAERVKALESALKEAKENASRDRKRYQQEVDRIKEA	2
